Data taken from patent US20110263454A1, “Methods of Identifying Functional Characteristics of Promoters, Transcription Modifying Proteins and Transcription Modulating Agents” (Salk Institute for Biological Studies, priority 2008, published 2011).

Experiments:
mCAR promoter = assay: NHR-promoter luciferase screen, mCAR promoter; type: cell-based, mouse; settings: for luciferase activity normalized to lacZ activity and to a control, mCAR: mCAR promoter-luciferase, CV-1 cells, NHR +/- ligand, control = 1.00; for Luc. act., normalized to lacZ / Normalized Luc. act., normalized to control: mCAR promoter, HR/ligand component
Method in brief: (§1)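 CV-1 cells were co-transfected with 50 ng NHR (homodimer or NHR/RXR heterodimer), 100 ng promoter-luciferase construct and 50 ng LacZ. Luciferase was normalized to LacZ and to a no-NHR/no-ligand control.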

mUCP2 promoter = assay: NHR-promoter luciferase screen, mUCP2 promoter; type: cell-based, mouse; settings: for Luc. act., normalized to lacZ / Normalized Luc. act., normalized to control: mUCP2 promoter reporter, co-transfected HR, with or without its ligand; for Normalized Luc. act., normalized to control: relative to control; for luciferase activity normalized to lacZ activity and to a control, mUCP2: mUCP2 promoter-luciferase, CV-1 cells, NHR +/- ligand, control = 1.00
Method in brief: as §1

mLeptin promoter = assay: NHR-promoter luciferase screen, mLeptin promoter; type: cell-based, mouse; settings: for Luc. act., normalized to lacZ / Normalized Luc. act., normalized to control: Table 7, mLeptin; for Results of assays of transcription factor (+/- ligand) with mLeptin: Table 6d, luciferase activity relative to control (control = 1.00)
Method in brief: as §1

hCYP3A4 promoter = assay: NHR-promoter luciferase screen, hCYP3A4 promoter; type: cell-based, human; settings: for Luc. act., normalized to lacZ / Normalized Luc. act., normalized to control: CYP3A4 promoter, HR/ligand component; for hCYP3A4 promoter reporter activity: transcription factor +/- ligand, control = 1.00
Method in brief: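 Luciferase reporter read-out after co-expression in CV-1 cells of V5H6-tagged receptor (alone or with RXR), the promoter construct and LacZ. Values are luciferase/LacZ relative to a control lacking NHR or ligand; orphan receptors tested ligand-free.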

hIFNg promoter = assay: NHR-promoter luciferase screen, hIFNg promoter; type: cell-based, human; settings: for Luc. act., normalized to lacZ / Normalized Luc. act., normalized to control: IFNg promoter, HR component without or with ligand; for hIFNg promoter reporter activity: transcription factor +/- ligand, control = 1.00
Method in brief: as §1

hPPARg1 promoter = assay: NHR-promoter luciferase screen, hPPARg1 promoter; type: cell-based, human; settings: for Luc. act., normalized to lacZ / Normalized Luc. act., normalized to control: PPARG1 promoter, hormone receptor with or without its ligand; for Normalized Luc. act., normalized to control: relative to control; for Results of assays of transcription factor (+/- ligand) with hPPARg1: Table 6d, luciferase activity relative to control (control = 1.00)
Method in brief: as §1

B1: RXRg: Retinoic X Receptor γ (NR2B3), cDNA driver (protein, UniProt P48443 1-463, looked up)
Retinoic acid receptor …: MYGNYSHFMKFPAGYGGSPGHTGSTSMSPSAALSTGKPMDSHPSYTDTPVSAPRTLSAVGTPLNALGSPYRVITSAMGPPSGALAAPPGINLVAPPSSQLNVVNSVSSSEDIKPLPGLPGIGNMNYPSTSPGSLVKHICAICGDRSSGKHYGVYSCEGCKGFFKRTIRKDLIYTCRDNKDCLIDKRQRNRCQYCRYQKCLVMGMKREAVQEERQRSRERAESEAECATSGHEDMPVERILEAELAVEPKTESYGDMNMENSTNDPVTNICHAADKQLFTLVEWAKRIPHFSDLTLEDQVILLRAGWNELLIASFSHRSVSVQDGILLATGLHVHRSSAHSAGVGSIFDRVLTELVSKMKDMQMDKSELGCLRAIVLFNPDAKGLSNPSEVETLREKVYATLEAYTKQKYPEQPGRFAKLLLRLPALRSIGLKCLEHLFFFKLIGDTPIDTFLMEMLETPLQIT
mCAR promoter
  luciferase activity normalized to lacZ activity and to a control, mCAR: 1.25
  Luc. act., normalized to lacZ: 47.5
  Normalized Luc. act., normalized to control: 1.2
mUCP2 promoter
  Luc. act., normalized to lacZ: 144.4
  Normalized Luc. act., normalized to control: 1.3
  luciferase activity normalized to lacZ activity and to a control, mUCP2: 1.31
mLeptin promoter
  Luc. act., normalized to lacZ: 2.1
  Normalized Luc. act., normalized to control: 0.7
  Results of assays of transcription factor (+/- ligand) with mLeptin: 0.70
hCYP3A4 promoter
  Luc. act., normalized to lacZ: 0.9
  Normalized Luc. act., normalized to control: 0.2
  hCYP3A4 promoter reporter activity: 0.19
hIFNg promoter
  Luc. act., normalized to lacZ: 15.2
  Normalized Luc. act., normalized to control: 1.0
  hIFNg promoter reporter activity: 0.96
hPPARg1 promoter
  Luc. act., normalized to lacZ: 43.7
  Normalized Luc. act., normalized to control: 0.6
  Results of assays of transcription factor (+/- ligand) with hPPARg1: 0.63

B2: RXRb: Retinoic X Receptor β (NR2B2), cDNA driver (protein, UniProt P28702 1-533, looked up)
Retinoic acid receptor …: MSWAARPPFLPQRHAAGQCGPVGVRKEMHCGVASRWRRRRPWLDPAAAAAAAVAGGEQQTPEPEPGEAGRDGMGDSGRDSRSPDSSSPNPLPQGVPPPSPPGPPLPPSTAPSLGGSGAPPPPPMPPPPLGSPFPVISSSMGSPGLPPPAPPGFSGPVSSPQINSTVSLPGGGSGPPEDVKPPVLGVRGLHCPPPPGGPGAGKRLCAICGDRSSGKHYGVYSCEGCKGFFKRTIRKDLTYSCRDNKDCTVDKRQRNRCQYCRYQKCLATGMKREAVQEERQRGKDKDGDGEGAGGAPEEMPVDRILEAELAVEQKSDQGVEGPGGTGGSGSSPNDPVTNICQAADKQLFTLVEWAKRIPHFSSLPLDDQVILLRAGWNELLIASFSHRSIDVRDGILLATGLHVHRNSAHSAGVGAIFDRVLTELVSKMRDMRMDKTELGCLRAIILFNPDAKGLSNPSEVEVLREKVYASLETYCKQKYPEQQGRFAKLLLRLPALRSIGLKCLEHLFFFKLIGDTPIDTFLMEMLEAPHQLA
mCAR promoter
  luciferase activity normalized to lacZ activity and to a control, mCAR: 1.27
  Luc. act., normalized to lacZ: 48.6
  Normalized Luc. act., normalized to control: 1.3
mUCP2 promoter
  Luc. act., normalized to lacZ: 87.7
  Normalized Luc. act., normalized to control: 0.8
  luciferase activity normalized to lacZ activity and to a control, mUCP2: 0.80
mLeptin promoter
  Luc. act., normalized to lacZ: 1.5
  Normalized Luc. act., normalized to control: 0.5
  Results of assays of transcription factor (+/- ligand) with mLeptin: 0.50
hCYP3A4 promoter
  Luc. act., normalized to lacZ: 0.3
  Normalized Luc. act., normalized to control: 0.1
  hCYP3A4 promoter reporter activity: 0.06
hIFNg promoter
  Luc. act., normalized to lacZ: 20.0
  Normalized Luc. act., normalized to control: 1.3
  hIFNg promoter reporter activity: 1.26
hPPARg1 promoter
  Luc. act., normalized to lacZ: 23.1
  Normalized Luc. act., normalized to control: 0.3
  Results of assays of transcription factor (+/- ligand) with hPPARg1: 0.34
